Experimental data: US20210355178A1 (UNIVERSIT T ULM, published 2021)

What was measured:
[1] = target: T1, complement factor C3b (UniProt P01024 23-667; P01024 749-1663); test: SPR, C3b amine-coupled (5610 RU), DAF-Fc as analyte
Method: 2600 RU of Bb were deposited by standard amine coupling onto a carboxymethyldextran sensorchip. Running buffer was PBS supplemented with 1 mM MgCl2 and 0.005% Tween 20. […] 5610 RU of C3b were deposited by standard amine coupling onto a carboxymethyldextran sensorchip. Running buffer was PBS supplemented with 1 mM MgCl2 and 0.005% Tween 20.

[2] = target: T1, complement factor C3b; test: SPR, C3b amine-coupled (4030 RU), 1:1 steady-state affinity fit
From the text: FIG. 3: C3b binding activity of miniFH and Fc-fusion variants of miniFH. Surface plasmon resonance (SPR) sensorgrams for C3b binding of miniFH (A), miniFH-Fc (C), Fc-miniFH (E) and Fc-miniFH-short (G) (assayed at a concentration range as specified; 4030 RU of C3b were deposited by amine). (B) Respective concentration response plots with fitted affinity (1:1 steady-state affinity fit) for C3b binding of miniFH (B), miniFH-Fc (D), Fc-miniFH (F) and Fc-miniFH-short (H) are shown. The affinity equilibrium constant is stated in the panes.
Surface plasmon resonance experiments were performed at 25° C. on a Reichert SR7500DC SPR instrument in PBS containing 0.005% Tween20 at a flow of 25 μl/min. 4030 response units (RU) of C3b were immobilized onto a carboxymethyldextran (CMD) 500 sensor chip (Xantec) and binding to amine coupled C3b was assayed. The analytes were injected at the indicated concentrations. To probe binding, a concentration series of miniFH or Fc fusions of miniFH were injected (at 25 μl/min for 2.5 min) followed by buffer flow for 300 s and a regeneration step consisting of an injection of 1 M NaCl for 30 s. The highest concentration of each series was injected twice to assess reproducibility. […]

T1 sequence (P01024 23-667 limits assumed, chain 1 of 2): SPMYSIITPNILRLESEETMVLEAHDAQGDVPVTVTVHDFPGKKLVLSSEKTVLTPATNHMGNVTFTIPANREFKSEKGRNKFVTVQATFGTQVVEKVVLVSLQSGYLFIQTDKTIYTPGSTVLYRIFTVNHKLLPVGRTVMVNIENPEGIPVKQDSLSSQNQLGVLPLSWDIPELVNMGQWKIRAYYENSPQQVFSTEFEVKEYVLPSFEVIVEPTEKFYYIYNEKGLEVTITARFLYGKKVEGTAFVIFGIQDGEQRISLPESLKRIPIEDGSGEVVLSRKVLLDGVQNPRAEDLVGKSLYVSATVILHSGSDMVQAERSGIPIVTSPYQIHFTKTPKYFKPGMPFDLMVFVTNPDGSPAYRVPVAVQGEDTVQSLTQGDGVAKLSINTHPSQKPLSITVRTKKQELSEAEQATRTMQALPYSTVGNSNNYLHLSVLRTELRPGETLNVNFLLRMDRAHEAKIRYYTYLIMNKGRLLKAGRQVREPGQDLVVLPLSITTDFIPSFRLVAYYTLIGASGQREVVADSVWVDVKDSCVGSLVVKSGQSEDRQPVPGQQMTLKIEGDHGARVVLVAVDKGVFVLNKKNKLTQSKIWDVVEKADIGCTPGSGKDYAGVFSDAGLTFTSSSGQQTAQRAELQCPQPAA
T1 sequence (P01024 749-1663 limits assumed, chain 2 of 2): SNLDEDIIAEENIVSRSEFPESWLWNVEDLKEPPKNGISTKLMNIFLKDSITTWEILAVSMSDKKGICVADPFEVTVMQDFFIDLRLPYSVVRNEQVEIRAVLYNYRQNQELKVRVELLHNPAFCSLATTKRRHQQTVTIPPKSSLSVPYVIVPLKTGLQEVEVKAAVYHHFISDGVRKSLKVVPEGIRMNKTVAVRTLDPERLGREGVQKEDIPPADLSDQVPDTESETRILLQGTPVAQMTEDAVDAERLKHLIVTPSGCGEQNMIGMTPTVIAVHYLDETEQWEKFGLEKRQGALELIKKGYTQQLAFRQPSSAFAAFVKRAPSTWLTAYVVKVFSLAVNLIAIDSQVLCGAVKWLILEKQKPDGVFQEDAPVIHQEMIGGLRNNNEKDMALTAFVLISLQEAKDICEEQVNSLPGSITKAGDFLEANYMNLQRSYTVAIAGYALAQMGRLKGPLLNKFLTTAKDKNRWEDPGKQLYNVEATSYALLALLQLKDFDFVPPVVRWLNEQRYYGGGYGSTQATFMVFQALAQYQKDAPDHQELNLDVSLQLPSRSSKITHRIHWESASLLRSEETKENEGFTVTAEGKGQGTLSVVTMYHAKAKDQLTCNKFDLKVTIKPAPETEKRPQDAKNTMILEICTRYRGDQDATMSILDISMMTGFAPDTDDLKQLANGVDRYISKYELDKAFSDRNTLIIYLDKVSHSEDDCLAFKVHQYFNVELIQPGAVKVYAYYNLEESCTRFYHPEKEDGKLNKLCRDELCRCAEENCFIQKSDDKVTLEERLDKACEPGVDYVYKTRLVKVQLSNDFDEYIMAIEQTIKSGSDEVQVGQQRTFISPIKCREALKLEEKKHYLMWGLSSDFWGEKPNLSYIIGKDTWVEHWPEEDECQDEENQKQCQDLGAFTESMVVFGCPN

Binder | binding result [1] | fold increased affinity over miniFH [2]
DAF-Fc (Fc fusion, not shown: Fc module at the C-terminus) DCGLPPDVPNAQPALEGRTSFPEDTVITYKCEESFVKIPGEKDSVICLKGSQWSDIEEFCNRSCEVPTRLNSASLKQPYITQNYFPVGTVVEYECRPGYRREPSLSPKLTCLQNLKWSTAVEFCKKKSCPNPGEIRNGQIDVPGGILFGATISFSCNTGYKLFGSTSSFCLISGSSVQWSDPLPECREIYCPAPPQIDNGIIQGERDHYGYRQSVTYACNKGFTMIGEHSIYCTVNNDEGEWSGPPPECRGGGGGGPGCPAPELLGGPSVFLFPPKPKDTLMISRTPEVTCVVVDVSHEDPEVKFNWYVDGVEVHNAKTKPREEQYQSTYRVVSVLTVLHQDWLNGKEYKCKVSNKALPAPIEKTISKAKGQPREPQVYTLPPSREEMTKNQVSLTCLVKGFYPSDIAVEWESNGQPENNYKTTPPVLDSDGSFFLYSKLTVDKSRWQQGNVFSCSVMHEALHNHYTQKSLSLSPGGGGGGG | no binding | 
miniFH-Fc (Fc fusion, Produced in Pichia pastoris) EDCNELPPRRNTEILTGSWSDQTYPEGTQAIYKCRPGYRSLGNIIMVCRKGEWVALNPLRKCQKRPCGHPGDTPFGTFTLTGGNVFEYGVKAVYTCNEGYQLLGEINYRECDTDGWTNDIPICEVVKCLPVTAPENGKIVSSAMEPDREYHFGQAVRFVCNSGYKIEGDEEMHCSDDGFWSKEKPKCVEISCKSPDVINGSPISQKIIYKENERFQYKCNMGYEYSERGDAVCTESGWRPLPSCEEAGGGGGGGGGGGGGKCGPPPPIDNGDITSFPLSVYAPASSVEYQCQNLYQLEGNKRITCRNGQWSEPPKCLHPCVISREIMENYNIALRWTAKQKLYSRTGESVEFVCKRGYRLSSRSHTLRTTCWDGKLEYPTCAGPGGGGGPGCPAPELLGGPSVFLFPPKPKDTLMISRTPEVTCVVVDVSHEDPEVKFNWYVDGVEVHNAKTKPREEQYQSTYRVVSVLTVLHQDWLNGKEYKCKVSNKALPAPIEKTISKAKGQPREPQVYTLPPSREEMTKNQVSLTCLVKGFYPSDIAVEWESNGQPENNYKTTPPVLDSDGSFFLYSKLTVDKSRWQQGNVFSCSVMHEALHNHYTQKSLSLSPGGGGGGG |  | ~2 fold
